This is an account of results in paper PMC6239862.

The test has as its target Q-PAS1 fragment of PpsR2 (Q-linker and PAS1 domain) fused with mRuby2 (Rhodopseudomonas palustris). In words: cross-linking.

Substance “Q-PAS1 fragment of PpsR2 (Q-linker and PAS1 domain) fused with mRuby2 (domain or fragment)” displayed a stoichiometry N of 2.
